Measured values reported in patent US20090099029A1, “Methods and substrates for conducting assays” (Invitrogen Corporation, priority 2005, published 2009).

B1: SGK (protein, UniProt O00141 1-431, looked up)
Serine/threonine-protein …: MTVKTEAAKGTLTYSRMRGMVAILIAFMKQRRMGLNDFIQKIANNSYACKHPEVQSILKISQPQEPELMNANPSPPPSPSQQINLGPSSNPHAKPSDFHFLKVIGKGSFGKVLLARHKAEEVFYAVKVLQKKAILKKKEEKHIMSERNVLLKNVKHPFLVGLHFSFQTADKLYFVLDYINGGELFYHLQRERCFLEPRARFYAAEIASALGYLHSLNIVYRDLKPENILLDSQGHIVLTDFGLCKENIEHNSTTSTFCGTPEYLAPEVLHKQPYDRTVDWWCLGAVLYEMLYGLPPFYSRNTAEMYDNILNKPLQLKPNITNSARHLLEGLLQKDRTKRLGAKDDFMEIKSHVFFSLINWDDLINKKITPPFNPNVSGPNDLRHFDPEFTEEPVPNSIGKSPDSVLVTASVKEAAEAFLGFSYAPPTDSFL
B2: SRPK2 (protein)
chain: MSSRKVLAIQARKRRPKREKHPKKPEPQQKAPLVPPPPPPPPPPPPPLPDPTPPEPEEEILGSDDEEQEDPADYCKGGYHPVKIGDLFNGRYHVIRKLGWGHFSTVWLCWDMQGKRFVAMKVVKSAQHYTETALDEIKLLKCVRESDPSDPNKDMVVQLIDDFKISGMNGIHVCMVFEVLGHHLLKWIIKSNYQGLPVRCVKSIIRQVLQGLDYLHSKCKIIHTDIKPENILMCVDDAYVRRMAAEATEWQKAGAPPPSGSAVSTAPQQKPIGKISKNKKKKLKKKQKRQAELLEKRLQEIEELEREAERKIIEENITSAAPSNDQDGEYCPEVKLKTTGLEEAAEAETAKDNGEAEDQEEKEDAEKENIEKDEDDVDQELANIDPTWIESPKTNGHIENGPFSLEQQLDDEDDDEEDCPNPEEYNLDEPNAESDYTYSSSYEQFNGELPNGRHKIPESQFPEFSTSLFSGSLEPVACGSVLSEGSPLTEQEESSPSHDRSRTVSASSTGDLPKAKTRAADLLVNPLDPRNADKIRVKIADLGNACWVHKHFTEDIQTRQYRSIEVLIGAGYSTPADIWSTACMAFELATGDYLFEPHSGEDYSRDEDHIAHIIELLGSIPRHFALSGKYSREFFNRRGELRHITKLKPWSLFDVLVEKYGWPHEDAAQFTDFLIPMLEMVPEKRASAGECLRHPWLNS
modifications: left off: a dimerising Fc or GST
B3: STK17A(DRAK1) (protein)
chain: MIPLEKPGSGGSSPGATSGSGRAGRGLSGPCRPPPPPQARGLLTEIRAVVRTEPFQDGYSLCPGRELGRGKFAVVRKCIKKDSGKEFAAKFMRKRRKGQDCRMEIIHEIAVLELAQDNPWVINLHEVYETASEMILVLEYAAGGEIFDQCVADREEAFKEKDVQRLMRQILEGVHFLHTRDVVHLDLKPQNILLTSESPLGDIKIVDFGLSRILKNSEELREIMGTPEYVAPEILSYDPISMATDMWSIGVLTYVMLTGISPFLGNDKQETFLNISQMNLSYSEEEFDVLSESAVDFIRTLLVKKPEDRATAEECLKHPWLTQSSIQEPSFRMEKALEEANALQEGHSVPEINSDTDKSETKESIVTEELIVVTSYTLGQCRQSEKEKMEQKAISKRFKFEEPLLQEIPGEFIY
modifications: left off: a dimerising Fc or GST
B4: STK22D(TSSK1) (protein)
chain: MDDAAVLKRRGYLLGINLGEGSYAKVKSAYSERLKFNVAIKIIDRKKAPADFLEKFLPREIEILAMLNHCSIIKTYEIFETSHGKVYIVMELAVQGDLLELIKTRGALHEDEARKKFHQLSLAIKYCHDLDVVHRDLKCDNLLLDKDFNIKLSDFSFSKRCLRDDSGRMALSKTFCGSPAYAAPEVLQGIPYQPKVYDIWSLGVILYIMVCGSMPYDDSNIKKMLRIQKEHRVNFPRSKHLTGECKDLIYHMLQPDVNRRLHIDEILSHCWMQPKARGSPSVAINKEGESSRGTEPLWTPEPGSDKKSATKLEPEGEAQPQAQPETKPEGTAMQMSRQSEILGFPSKPSTMETEEGPPQQPPETRAQ
modifications: left off: small tags and cut ends
B5: TAOK2(TAO1) (protein)
chain: MPAGGRAGSLKDPDVAELFFKDDPEKLFSDLREIGHGSFGAVYFARDVRNSEVVAIKKMSYSGKQSNEKWQDIIKEVRFLQKLRHPNTIQYRGCYLREHTAWLVMEYCLGSASDLLEVHKKPLQEVEIAAVTHGALQGLAYLHSHNMIHRDVKAGNILLSEPGLVKLGDFGSASIMAPANSFVGTPYWMAPEVILAMDEGQYDGKVDVWSLGITCIELAERKPPLFNMNAMSALYHIAQNESPVLQSGHWSEYFRNFVDSCLQKIPQDRPTSEVLLKHRFVLRERPPTVIMDLIQRTKDAVRELDNLQYRKMKK
modifications: left off: a dimerising Fc or GST
B6: SGKL(SGK3) (protein, UniProt Q96BR1 1-496, looked up)
Serine/threonine-protein …: MQRDHTMDYKESCPSVSIPSSDEHREKKKRFTVYKVLVSVGRSEWFVFRRYAEFDKLYNTLKKQFPAMALKIPAKRIFGDNFDPDFIKQRRAGLNEFIQNLVRYPELYNHPDVRAFLQMDSPKHQSDPSEDEDERSSQKLHSTSQNINLGPSGNPHAKPTDFDFLKVIGKGSFGKVLLAKRKLDGKFYAVKVLQKKIVLNRKEQKHIMAERNVLLKNVKHPFLVGLHYSFQTTEKLYFVLDFVNGGELFFHLQRERSFPEHRARFYAAEIASALGYLHSIKIVYRDLKPENILLDSVGHVVLTDFGLCKEGIAISDTTTTFCGTPEYLAPEVIRKQPYDNTVDWWCLGAVLYEMLYGLPPFYCRDVAEMYDNILHKPLSLRPGVSLTAWSILEELLEKDRQNRLGAKEDFLEIQNHPFFESLSWADLVQKKIPPPFNPNVAGPDDIRNFDTAFTEETVPYSVCVSSDYSIVNASVLEADDAFVGFSYAPPSEDLFL
B7: STK22B(TSSK2) (protein)
chain: MDDATVLRKKGYIVGINLGKGSYAKVKSAYSERLKFNVAVKIIDRKKTPTDFVERFLPREMDILATVNHGSIIKTYEIFETSDGRIYIIMELGVQGDLLEFIKCQGALHEDVARKMFRQLSSAVKYCHDLDIVHRDLKCENLLLDKDFNIKLSDFGFSKRCLRDSNGRIILSKTFCGSAAYAAPEVLQSIPYQPKVYDIWSLGVILYIMVCGSMPYDDSDIRKMLRIQKEHRVDFPRSKNLTCECKDLIYRMLQPDVSQRLHIDEILSHSWLQPPKPKATSSASFKREGEGKYRAECKLDTKTGLRPDHRPDHKLGAKTQHRLLVVPENENRMEDRLAETSRAKDHHISGAEVGKAST
modifications: left off: small tags and cut ends
B8: SGK2 (protein)
chain: LPDHCYRMNSSPAGTPSPQPSRANGNINLGPSANPNAQPTDFDFLKVIGKGNYGKVLLAKRKSDGAFYAVKVLQKKSILKKKEQSHIMAERSVLLKNVRHPFLVGLRYSFQTPEKLYFVLDYVNGGELFFHLQRERRFLEPRARFYAAEVASAIGYLHSLNIIYRDLKPENILLDCQGHVVLTDFGLCKEGVEPEDTTSTFCGTPEYLAPEVLRKEPYDRAVDWWCLGAVLYEMLHGLPPFYSQDVSQMYENILHQPLQIPGGRTVAACDLLQSLLHKDQRQRLGSKADFLEIKNHVFFSPINWDDLYHKRLTPPFNPNVTGPADLKHFDPEFTQEAVSKSIGCTPDTVASSSGASSAFLGFDYAPEDDDILDC
modifications: left off: a dimerising Fc or GST

Test system: kinases of Table 6 on Myelin Basic Protein (MBP)
Assay: Kinase assay using MBP substrate, ProQ Diamond stain (Table 6)
Format: biochemical
Conditions: kinase printed on MBP-coated slide; 20 uM ATP, 30° C.; ProQ Diamond Microarray Stain; graded Strong/Weak/Negative
How it was run: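 Reactions ran at 30° C. with 20 uM ATP, 4 mM MgCl2 and 5% DMSO in HEPES pH 7.5, inhibitor added or omitted. Kinases had been arrayed onto slide-bound dephosphorylated bovine MBP; phospho-signal read after ProQ Diamond staining.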

Molecule	MBP Kinase Activity
B1	Strong
B2	Strong
B3	Negative
B4	Strong
B5	Strong
B6	Weak
B7	Negative
B8	Weak
